In PMC9037348:

Molecular target: GFP-CaV1.1e (embryonic splice variant of CaV1.1, lacking exon 29)

shift of the half-maximal potential of steady-state inactivation of CaV1.1e calcium currents to hyperpolarizing potentials on coexpression of γ1 (whole-cell patch clamp, HEK-TetOn-STAC3 cells): 13.7 mV
B1: γ1 subunit of the skeletal muscle voltage-gated calcium channel (mouse γ1) (natural protein)
chain: MSQTKTAKVRVTLFFILVGGVLAMVAVVTDHWAVLSPHLEHHNETCEAAHFGLWRICTARVAVHNKDKSCEHVTPSGEKNCSYFRHFNPGESSEIFEFTTQKEYSISAAAIAIFSLGFIIVGSICAFLSFGNKRDYLLRPASMFYAFAGLCLIVSVEVMRQSVKRMIDSEDTVWIEHYYSWSFACACAAFILLFLGGLFLLLFSLPRMPQNPWESCMDAEPEH
